The target of assay [1] is biotinylated mouse MCL1 (amino acids 152-308) (mouse) (UniProt P97287). Nature of the assay: SPR.
A further assay has as its target MCL1 (UniProt P97287). Description: SPR. On the technique in general: Surface plasmon resonance follows binding to a sensor surface in real time, without labels.

As usually defined, the Kd is the concentration at which binding is half-saturated. A higher Kd goes with a looser complex.

PUMA27 I137tBu (peptide) registered a Kd in assay [1] of 7 nM. This lies in the single-digit nanomolar range.

Turning to “PUMA 27-aa wild-type peptide (pseudo wild-type, M144A)”, the dissociation constant Kd in the assay with MCL1 was determined as 4 nM.

Consider “rPUMA (redesigned PUMA peptide: A139tBu, Q140Y, A144Cha, A145G, Y152Bzt)”, for which the equilibrium dissociation constant (Kd) in the assay with MCL1 is < 0.16 nM.

Source of the values: paper PMC6205457.
